Experimental data: US20230149532A1
Read-outs that look alike come from different tables or passages of the source.

What was measured:
[1] = target: ACE-2 receptor on Vero e6 cells (African green monkey (Vero e6 cells)); experiment: two-color confocal microscopy, co-localization on Vero e6 cells (n=10 analyses)
[2] = target: ACE-2 receptor on Vero e6 cells (African green monkey (Vero e6 cells))

Row | Substance | fold increase over the non-specific H7 control [1] [fold] | particles per field (particles per field) [1] | particles per field (particles per field) [2]
1 | angiotensin II (from UniProt P01019 25-32) (peptide) | 2.79 | 452 | –
2 | plant-produced recombinant H7 strain influenza HA protein | – | – | 122
